B1: 1043 (protein, listed as Flavobacterium johnsoniae)
chain: MKLSLKTFFYTMLLFSFFHAFSQEKLVSPWPESSNINQPWARWWWMGSAVDKPNLKRSLIDFHKAGIGGVEITPIYGVKGEENNFIDYLSPKWMEMLDYTIHVSDSLKMQVDMVLGTGWPYGGSHVTLPHAATKLIVEKYTVKKNETFDRDITVDSSKEKTPASLLYVVAYGNDGSFVNLTNELQNKKVNVKDKGLEGSNIKLPNKLEPNKLNWKAKKADYTIYAVFSGKTGQQVKRAAPGGKGYTLDHYSEEALKAYVIPFNEALKGREGKIRAVFNDSFEVYGTDFTPNFFEEFQKLRGYDLKKQLPVLLNETDNEIGNRIRSDYRQTISDLLLNKFDKFWTNWAHSKNFKTKLQAHGSPGNLIDLYASADIPECETFGSMPFDIPGFRRDKEDIREGDADPVMLKFSSSAAHISGKNLVSSETFTWLREHFKTALSQCKPEAEDLMLNGVNHIFLHGSTYSPDRAVWPGWQFYASVNFNSNNTIWEDAPALFSYISNCQSLLQQGKPDNEILLYWPIFDAWDKYEKGTLFYQFKIHSLSDWLYGTSFYDTTKNLMKKGYSVDFISDNFIAEAKVVNGNIVLPGGNFKSLVIPSCKKMPVETLQKLIELKKAGACILFEGLPESVPGFKDYKKQEQNLKNLLAENKIQAVSNIFTSLEDAKILPESLVNTGLKSIRRDINGEKIYYLVNHTAKTIDDFIPLQVENKEIILLDPLTHESGNAIVNKKDKITYVKIKIEPGQSYFLKTENTASQKKWNYFESASEPIALKGNWKLSFDKGGPKLPADAVVSNLESWTKLSPDAEAFSGSAAYTLQFENPNPKIENWSLNLGDVRESAKVWLNDEFIGTAWSVPYKLNIQKLKPGKNVLKIQVTNLPANRIRDMELKGQEWKIFHEINMVDKDYKKFDATKWIPMPSGLLGPVTLTALKQEN
B2: 1058 (protein, listed as Cyclobacterium marinum)
chain: MKLTTYYFCLIAGLCSLFTFGLHAQESAIYKQMRQNFQQPPNTAKPTVYHWWLGGDVDTVRLKEEILSFDKAGIAGFTIFEIGSRDTVFVGAGPEFLGEASLETIKVAVEEAGKYGMEVGLNTASSWNAGGNWLTPKHAAKSIYQRKVNVSGGGKEKIKLPFPDIPEKDPRGRKRLISYGKDGKPVYSEEIAVLAIPLVGENAAIDTSLIKDVSIYFDANKEVLNWDVPEGDWKIVRYVSSNSGENLVLPSKYSAGPIVDHFDADATAFHFNYIIDRLESKLGDLRKTSLKNLYMASYEARGFNWTPTLPQEFQELNGYDIKKFLPILFGEVSLSQEATAAFRAGFQRTLSELMIKNFYMKSKEICNAHGLKNNSEAGGPGYPLHDVPVEPLKALGKGLDIPRGEFWINHHNFSEEGMDVLRVVKEVSSASNIYGVGMVEMEAFTTFQQWQEGPYEMKPMGDRAFAEGMNRVVVHGSTHNPKGTGNPGIVYHAGTHYNDKRVWWKKVRPFNDYLARISYVLQEADFQSDVLYYYGDTIPNYGGHKRSRFNPGEGYDFELLNTEILFGLEVKNGKIINPRNGAEFKVLALTKEHEINPKVLSKLEQMASSGAIITGPKPNRIAPERNMKELPNMNGWLDNLWKPFSKQSFKPGSKAIYYNVSVGEILKALELSPDFSYKGNGFYTLDYTHYQKGDMDFYFIVNTTGEWLSRDLIFRQEGKVPELWNPENGNISPIPIYKETEEGISLPLSLAPHESAFVVFKPGIKPVHFTKIAHGGIHPPKVRYSDQGIEFWEEGEFGLGHGEDTLILNNFPNVKSLEGAWEIYFPEGWGAPDKAIFPELKSWTESENEGIKYFSGTARYEKKFIHEMHASEYPEAKIYLDLGDLSHVAEVWLNDKPLGITWSKPYRFDVTEAIKPGINTLKIEVANTWSNRLTGDAITGKDYTQTHVNNTVIKGMPNFRVTWENAPLIPSGILGPVTLTTVLPIAMPK
B3: 998 (protein)
chain: MLSIALAAALAAGAVAPDWHDGLDWHGVHVAISRDAQQGYTLAWPYGQRTIAAQPLATQTASPLFDGLFAMAQDDLKQDSVSAIRDGAFDHGQPIPCQCFETGLKWPYVWTRDLSYAIDLGLWRFDPARSRNGLKFKLSGVRVASAPQGPAPKRLYPMQDTGSGGSWPISTDRVVWFLGARHLLDDQAFADDVYRALDATLAQDRQYAFDAGFGLYRGETSFLDWREQSYPAWTADEVTFIAQSYALSTNVLHYQALQLAANLADTHHDAKAAAGYRADAAALKAAINAHFWRAERGMYMSYLSGDGTPYDSYDLLGIALAIDSGVAGGERAKQALANYPTWPAGSPVIWPERADQPIYHNRAIWPFVSAYALRAARLTEQPARIAHEIESVLRGAALYGSNMENYELLTQGQHVDEGKLSGPVVNSPRQLWSVAAALAVVTEGVFGLNEDGSVEPKLPTALVPMLFGQRRTITLDLHERQITLQLPEKISGNLLVADRTRTQGTATTVTLKAVQVPDAPLRTDAPLYAPLAPAAPVVQAAGNGWRVSAEGKVRLYLNGRAHGDIDGTATLPRQPGLTCFSATRVDAHGLESLHSPDTCVGETAKVNGSWPRRWTAPATGRYRVALDYANDHGPINTGITAAVKMLEVSCAGSDPQRLPIVMPHSVRAQRSTWGTFTAQAGSACRFALDDGFNMSYLAHFAHYTANNGSGGNGGSSGPLNQAEVHALLIAPLAADRGTP
modifications: Rhodanobacter denitrificans
B4: 1024 (protein)
chain: MKRTLLLTFLLLSVSALCFSQKLVEVAKGYSCTSVNTTIFRNNSLVTHGDEQYISYYDADGYLVLGKRKLNSKQWTLHRTQYRGNVKDAHNIISIMVDGEGYLHVSFDHHGHKLNYCRSIAPGSLELGDKMPMTGVDEGNVTYPEFYPLTDGDLLFVYRSGSSGRGNLVMNRYSLKDHKWARVQDVLIDGEDKRNAYWQLYVDEKGTIHLSWVWRETWQVETNHDLCYARSFDNGVTWYKSDGEQYKLPITASNAEYACRIPQNSELINQTSMSADAGGNPYIATYWRSSDSEVPQYRIVWNDGKTWHNRQVTDRKTPFTLKGGGTKMIPVARPRIVVEDGEIFYIFRDEERGSRVSMAHTADVANGKWIVTDLTDFSVDAWEPSHDTELWKKQRKLNLFVQHTCQGDGERTAEIEPQMIYVLEANTNTKK
modifications: Bacteroides thetaiotaomicron
B5: 1060 (protein, listed as Lunatimonas lonarensis)
chain: MTKTFKIGFLLLACVVFVSCSENPKQADCGLCESVGAKWIQVEKELPTEDSLFYLPNPAPLFRKEFGVESHFDSAKLFITAAGYYKATLNGEAIGKNILDPAWTDYTKRVYYAEYDLSAQIQEGTNCFGVSLGNGFYNPLPMRKWGRRNPREDLNVGKPTFIARLVLYYPNGKTKEISTDESWKYSYGPLIKNSVYLGVLYDKGMEIPGWDRPGFNDTGWKSVQVGKGPGGQLQAAFFPAVQVTEEIRPKSIHEIEKDVYIVDMGVNFTGTYKIRLAGNVGDTVTLRFGERLYEDGTLNPMTTVVGQIKAPGIGGPGSPAIAWQTSSYVVDTEPTWFSPDFTYHTFRYMEITGLQKPPLLTDITGLYFHTNVERESHFTSSNSLLNQIQDATTRTFLSNLISVQSDCAVREKFGYGGDLNATAESFIYNFDMRDIYRKTVYDWVDAINDSIFVDTAPFAGIKYCGISWESAYLITQYYLYLYYDETDLVHELYEDNLAWMDKVARIHPEGMVDSGLSDHESLEPVPVQLTGTAHYLQCAEIMETFASLKGDTKNQQRFAELSEKLRAIIKAEFWDKPVTERINRQTLFSTLLFHRIIPEDELGAARDSLVQAVKNGPSGQFNTGIFGTKYVLETLSESVPIDQVYAIVNSTKFPGWGHMISRGATTIWETWQESDNVFTNCHPMFGTVTEWYYRWLGGIRPDPKQPGFKAFVLAPRTPTGLDSISCSYRSPYGDIVSNWRRESGNSVVYDLIIPVGSVASVSLDMKAAQGLSITKDGKAFQPPVTDASTPGEFKLEGGNYKVVVSG

experiment: Experiment 6-1: screening of rhamnosidases for derhamnosylation of saponins in treated bark extract (2%), QS-17 2296 to QS-18 2150 (PAR %); assay type: biochemical, Quillaja saponaria; conditions: TBE 2%, pH 7.5, 30 degC, 18 h; TIC peak area ratio percent of rhamnosylated starting saponin to derhamnosylated product, LCMS/MS; negative controls 4.876, 5.225

Row | Molecule | QS-17 (PAR %) [%]
1 | B1 | 5.098
2 | B2 | 5.121
3 | B3 | 5.111
4 | B4 | 5.145
5 | B5 | 5.159

experiment: Experiment 6-1: screening of rhamnosidases for derhamnosylation of saponins in treated bark extract (2%), desglucosyl-QS-17 2134 to QS-21 1988 (PAR %); assay type: biochemical, Quillaja saponaria; conditions: TBE 2%, pH 7.5, 30 degC, 18 h; TIC peak area ratio percent, LCMS/MS; negative controls 2.719, 2.158

Row | Molecule | Peak75 (PAR %) [%]
6 | B1 | 2.791
7 | B2 | 2.398
8 | B3 | 2.402
9 | B4 | 2.806
10 | B5 | 2.382

experiment: Experiment 6-1: screening of rhamnosidases for derhamnosylation of saponins in treated bark extract (2%), QS-17 2310 to QS-18 2164 (PAR %); assay type: biochemical, Quillaja saponaria; conditions: TBE 2%, pH 7.5, 30 degC, 18 h; TIC peak area ratio percent, LCMS/MS; negative controls 3.061, 2.429

Row | Molecule | Peak57 (PAR %) [%]
11 | B1 | 3.119
12 | B2 | 3.144
13 | B3 | 3.326
14 | B4 | 2.924
15 | B5 | 2.888

experiment: Experiment 6-1: specificity of rhamnosidases towards other rhamnose residues (C3 saccharide rhamnose, C28 saccharide rhamnose); assay type: biochemical, Quillaja saponaria; conditions: TBE 2%, pH 7.5, 30 degC, 18 h; LCMS/MS; negative controls 0.18, 0.17

Row | Molecule | ratio PP/QS-21
16 | B1 | 0.15
17 | B2 | 0.17
18 | B3 | 0.15
19 | B4 | 0.17
20 | B5 | 0.15
